What was measured:
Experiment in all cases: IEDB peptide-MHC binding, purified MHC/direct/fluorescence; filed as Kd, often an IC50 or EC50 that approximates it; ≥ and ≤ were set here for values at or beyond the usual limits of such assays
[1] = target: HLA-A*01:01
[2] = target: HLA-A*02:01
[3] = target: HLA-A*03:01
[4] = target: HLA-A*11:01
[5] = target: HLA-A*26:01; conditions: source organism: Haemophilus influenzae
[6] = target: HLA-A*31:01
[7] = target: HLA-A*69:01; conditions: source organism: Vibrio vulnificus
[8] = target: HLA-B*07:02
[9] = target: HLA-B*08:01; conditions: source organism: Haemophilus influenzae
[10] = target: HLA-B*15:01
[11] = target: HLA-B*27:05
[12] = target: HLA-B*35:01; conditions: source organism: Vibrio vulnificus
[13] = target: HLA-B*44:02; conditions: source organism: Haemophilus influenzae
[14] = target: HLA-B*58:01
[15] = target: HLA-C*12:03; conditions: source organism: Yersinia pestis Nepal516
[16] = target: HLA-A*68:02; conditions: source organism: Giardia intestinalis
[17] = target: HLA-B*08:03; conditions: source organism: Giardia lamblia ATCC 50803
[18] = target: HLA-B*15:17; conditions: source organism: Giardia intestinalis
[19] = target: HLA-B*18:01; conditions: source organism: Giardia intestinalis
[20] = target: HLA-B*40:01; conditions: source organism: Giardia intestinalis
[21] = target: HLA-B*46:01; conditions: source organism: Giardia intestinalis
[22] = target: HLA-B*48:01; conditions: source organism: Giardia intestinalis
[23] = target: HLA-B*57:01; conditions: source organism: Giardia intestinalis
[24] = source organism: Vibrio vulnificus
[25] = source organism: Haemophilus influenzae
[26] = source organism: Giardia intestinalis

## IMDEPTSSL
[1]; [24]
  Kd: 14.3 µM
[2]; [24]
  Kd: 26.7 nM
[3]; [25]
  Kd: ≥ 20 µM
[4]; [25]
  Kd: ≥ 20 µM
[5]
  Kd: ≥ 20 µM
[6]; [25]
  Kd: ≥ 20 µM
[7]
  Kd: 64.9 nM
[8]; [24]
  Kd: ≥ 5 µM
[9]
  Kd: ≥ 20 µM
[10]; [24]
  Kd: 173 nM
[11]; [25]
  Kd: ≥ 20 µM
[12]
  Kd: 2070 nM
[13]
  Kd: ≥ 20 µM
[14]; [25]
  Kd: ≥ 20 µM
[15]
  Kd: ≥ 20 µM

## INTLESMMK
[1]; [26]
  Kd: ≥ 20 µM
[2]; [26]
  Kd: ≥ 20000 nM
[3]; [26]
  Kd: ≥ 20 µM
[4]; [26]
  Kd: 12 µM
[6]; [26]
  Kd: ≥ 20 µM
[16]
  Kd: ≥ 20 µM
[8]; [26]
  Kd: ≥ 20 µM
[17]
  Kd: ≥ 20 µM
[10]; [26]
  Kd: ≥ 20000 nM
[18]
  Kd: ≥ 20 µM
[19]
  Kd: ≥ 20 µM
[11]; [26]
  Kd: ≥ 20 µM
[20]
  Kd: ≥ 20 µM
[21]
  Kd: ≥ 20 µM
[22]
  Kd: ≥ 20 µM
[23]
  Kd: ≥ 20 µM
[14]; [26]
  Kd: ≥ 20 µM
